What was measured:
[1] = melting temperature; UV melt of duplexes
[2] = melting temperature; melt of duplexes; settings: sodium 0.0675 M; strand 1 µM

## CGAGCTTATCCCTATCCCTC+GAGGGATAGGGATAAGCTCG ((((((((((((((((((((+))))))))))))))))))))
[1]; sodium 0.07 M, strand 2 µM
  Tm: 56 °C
[1]; sodium 0.12 M, strand 2 µM
  Tm: 60.2 °C
[1]; sodium 0.22 M, strand 2 µM
  Tm: 64.1 °C
[1]; sodium 0.62 M, strand 2 µM
  Tm: 68.5 °C
[1]; sodium 1.02 M, strand 2 µM
  Tm: 70.3 °C

## ATATATATAGCTATATATAT+ATATATATAGCTATATATAT ((((((((((((((((((((+))))))))))))))))))))
[1]; sodium 0.12 M, strand 5 µM
  Tm: 44.8 °C

## AAAGTACATCAACATAGAGAATTGCATTTC+GAAATGCAATTCTCTATGTTGATGTACTTT ((((((((((((((((((((((((((((((+))))))))))))))))))))))))))))))
[1]; sodium 0.07 M, strand 2 µM
  Tm: 58.3 °C
[1]; sodium 0.12 M, strand 2 µM
  Tm: 61.9 °C
[1]; sodium 0.22 M, strand 2 µM
  Tm: 66.1 °C
[1]; sodium 0.62 M, strand 2 µM
  Tm: 71.3 °C
[1]; sodium 1.02 M, strand 2 µM
  Tm: 73.2 °C

## ATAACTTTACGTGTGTGACCTATTA+TAATAGGTCACACACGTAAAGTTAT (((((((((((((((((((((((((+)))))))))))))))))))))))))
[1]; sodium 0.07 M, strand 2 µM
  Tm: 56.6 °C
[1]; sodium 0.12 M, strand 2 µM
  Tm: 60.7 °C
[1]; sodium 0.22 M, strand 2 µM
  Tm: 64.7 °C
[1]; sodium 0.62 M, strand 2 µM
  Tm: 69.6 °C
[1]; sodium 1.02 M, strand 2 µM
  Tm: 71.8 °C

## GCGAGCGACAGGTTACTTGGCTGAT+ATCAGCCAAGTAACCTGTCGCTCGC (((((((((((((((((((((((((+)))))))))))))))))))))))))
[1]; sodium 0.07 M, strand 2 µM
  Tm: 67 °C
[1]; sodium 0.12 M, strand 2 µM
  Tm: 70.8 °C
[1]; sodium 0.22 M, strand 2 µM
  Tm: 74.7 °C
[1]; sodium 0.62 M, strand 2 µM
  Tm: 78.6 °C
[1]; sodium 1.02 M, strand 2 µM
  Tm: 80.1 °C

## ACCGACGACGCTGATCCGAT+ATCGGATCAGCGTCGTCGGT ((((((((((((((((((((+))))))))))))))))))))
[1]; sodium 0.07 M, strand 2 µM
  Tm: 66 °C
[1]; sodium 0.12 M, strand 2 µM
  Tm: 69.1 °C
[1]; sodium 0.22 M, strand 2 µM
  Tm: 72.6 °C
[1]; sodium 0.62 M, strand 2 µM
  Tm: 76.8 °C
[1]; sodium 1.02 M, strand 2 µM
  Tm: 77.3 °C

## TTCAAGTTAAACATTCTATC+GATAGAATGTTTAACTTGAA ((((((((((((((((((((+))))))))))))))))))))
[1]; sodium 0.07 M, strand 2 µM
  Tm: 45.7 °C
[1]; sodium 0.12 M, strand 2 µM
  Tm: 49.5 °C
[1]; sodium 0.22 M, strand 2 µM
  Tm: 53.9 °C
[1]; sodium 0.62 M, strand 2 µM
  Tm: 59.4 °C
[1]; sodium 1.02 M, strand 2 µM
  Tm: 61.5 °C

## AACCTGCAACATGGAGTTTTTGTCTCATGC+GCATGAGACAAAAACTCCATGTTGCAGGTT ((((((((((((((((((((((((((((((+))))))))))))))))))))))))))))))
[1]; sodium 0.07 M, strand 2 µM
  Tm: 64.5 °C
[1]; sodium 0.12 M, strand 2 µM
  Tm: 68.3 °C
[1]; sodium 0.22 M, strand 2 µM
  Tm: 72.5 °C
[1]; sodium 0.62 M, strand 2 µM
  Tm: 77.7 °C
[1]; sodium 1.02 M, strand 2 µM
  Tm: 78.7 °C

## TGATTCTACCTATGTGATTT+AAATCACATAGGTAGAATCA ((((((((((((((((((((+))))))))))))))))))))
[1]; sodium 0.07 M, strand 2 µM
  Tm: 49.1 °C
[1]; sodium 0.12 M, strand 2 µM
  Tm: 53.5 °C
[1]; sodium 0.22 M, strand 2 µM
  Tm: 57.4 °C
[1]; sodium 0.62 M, strand 2 µM
  Tm: 62.3 °C
[1]; sodium 1.02 M, strand 2 µM
  Tm: 64.4 °C

## ACGGGTCCCCGCACCGCACCGCCAG+CTGGCGGTGCGGTGCGGGGACCCGT (((((((((((((((((((((((((+)))))))))))))))))))))))))
[1]; sodium 0.07 M, strand 2 µM
  Tm: 76.8 °C
[1]; sodium 0.12 M, strand 2 µM
  Tm: 79.9 °C
[1]; sodium 0.22 M, strand 2 µM
  Tm: 84 °C
[1]; sodium 0.62 M, strand 2 µM
  Tm: 87.1 °C
[1]; sodium 1.02 M, strand 2 µM
  Tm: 88.3 °C

## GTCCACGCCCGGTGCGACGG+CCGTCGCACCGGGCGTGGAC ((((((((((((((((((((+))))))))))))))))))))
[1]; sodium 0.07 M, strand 2 µM
  Tm: 70.9 °C
[1]; sodium 0.12 M, strand 2 µM
  Tm: 73.9 °C
[1]; sodium 0.22 M, strand 2 µM
  Tm: 77.3 °C
[1]; sodium 0.62 M, strand 2 µM
  Tm: 79.8 °C
[1]; sodium 1.02 M, strand 2 µM
  Tm: 81.1 °C

## AAAAAAAAGAATTCTTTTTTTT+AAAAAAAAGAATTCTTTTTTTT ((((((((((((((((((((((+))))))))))))))))))))))
[1]; sodium 0.12 M, strand 6 µM
  Tm: 49.9 °C

## GACGACGACGACGACGACGACGACGACGAC+GTCGTCGTCGTCGTCGTCGTCGTCGTCGTC ((((((((((((((((((((((((((((((+))))))))))))))))))))))))))))))
[1]; sodium 0.15 M, strand 0.0001 M
  Tm: 83 °C

## AAAAAAAAAGCTTTTTTTTT+AAAAAAAAAGCTTTTTTTTT ((((((((((((((((((((+))))))))))))))))))))
[1]; sodium 0.12 M, strand 5 µM
  Tm: 51 °C

## AATATATGATCATCGAT+ATCGATGATCATATATT (((((((((((((((((+)))))))))))))))))
[1]; sodium 0.12 M, strand 3 µM
  Tm: 50 °C

## AATATATGAATTCTAATTAA+TTAATTAGAATTCATATATT ((((((((((((((((((((+))))))))))))))))))))
[1]; sodium 0.12 M, strand 6 µM
  Tm: 44.7 °C

## GCTAAAAAGAGAGAGAGATCG+CGATCTCTCTCTCTTTTTAGC (((((((((((((((((((((+)))))))))))))))))))))
[1]; sodium 1 M, strand 3 µM
  Tm: 69 °C

## GTTCTATACTCTTGAAGTTGATTAC+GTAATCAACTTCAAGAGTATAGAAC (((((((((((((((((((((((((+)))))))))))))))))))))))))
[1]; sodium 0.07 M, strand 2 µM
  Tm: 52.7 °C
[1]; sodium 0.12 M, strand 2 µM
  Tm: 56.1 °C
[1]; sodium 0.22 M, strand 2 µM
  Tm: 60.6 °C
[1]; sodium 0.62 M, strand 2 µM
  Tm: 66.1 °C
[1]; sodium 1.02 M, strand 2 µM
  Tm: 67.7 °C

## AACGCGCGTAGAGTAATTATAA+TTATAATTACTCTACGCGCGTT ((((((((((((((((((((((+))))))))))))))))))))))
[1]; sodium 0.12 M, strand 6 µM
  Tm: 65 °C

## CATATTGGCCAATATG+CATATTGGCCAATATG ((((((((((((((((+))))))))))))))))
[1]; sodium 1 M, strand 0.0001 M
  Tm: 65.3 °C

## AATATATATAGAGTGCGCGCAA+TTGCGCGCACTCTATATATATT ((((((((((((((((((((((+))))))))))))))))))))))
[1]; sodium 0.12 M, strand 3.3 µM
  Tm: 64.1 °C

## AGCAAGTCGAGCAGGGCCTACGTTT+AAACGTAGGCCCTGCTCGACTTGCT (((((((((((((((((((((((((+)))))))))))))))))))))))))
[1]; sodium 0.07 M, strand 2 µM
  Tm: 68.3 °C
[1]; sodium 0.12 M, strand 2 µM
  Tm: 72.6 °C
[1]; sodium 0.22 M, strand 2 µM
  Tm: 76.3 °C
[1]; sodium 0.62 M, strand 2 µM
  Tm: 80 °C
[1]; sodium 1.02 M, strand 2 µM
  Tm: 81.5 °C

## CGACGTGCGGAATGTGCTG+CAGCACATTAAGCACGTCG ((((((((..(((((((((+)))))))))..))))))))
[2]
  Tm: 55.8 °C

## CGACGTGCCAAATGTGCTG+CAGCACATCCTGCACGTCG ((((((((...((((((((+))))))))...))))))))
[2]
  Tm: 48.5 °C

## CGACGTGCAATATGTGCTG+CAGCACATCCGGCACGTCG ((((((((...((((((((+))))))))...))))))))
[2]
  Tm: 48.5 °C

## CGACGTGCCAGATGTGCTG+CAGCACATGCGGCACGTCG (((((((((..((((((((+))))))))..)))))))))
[2]
  Tm: 54.6 °C

## CGACGTGCGGCATGTGCTG+CAGCACATGGGGCACGTCG ((((((((..(((((((((+)))))))))..))))))))
[2]
  Tm: 57.6 °C

## CGACGTGCAATATGTGCTG+CAGCACATAAAGCACGTCG ((((((((..(((((((((+)))))))))..))))))))
[2]
  Tm: 52 °C

## CGACGTGCGAGATGTGCTG+CAGCACATACGGCACGTCG ((((((((...((((((((+))))))))...))))))))
[2]
  Tm: 50.1 °C

## CGACGTGCCAAATGTGCTG+CAGCACATGCGGCACGTCG (((((((((..((((((((+))))))))..)))))))))
[2]
  Tm: 57.1 °C

## CGACGTGCTGTATGTGCTG+CAGCACATCCAGCACGTCG ((((((((((.((((((((+)))))))).))))))))))
[2]
  Tm: 55.5 °C

## CGACGTGCTATATGTGCTG+CAGCACATTATGCACGTCG ((((((((...((((((((+))))))))...))))))))
[2]
  Tm: 51.6 °C

## CGACGTGCATGATGTGCTG+CAGCACATGAAGCACGTCG ((((((((.(.((((((((+)))))))).).))))))))
[2]
  Tm: 50.3 °C

## CGACGTGCATAATGTGCTG+CAGCACATGAAGCACGTCG ((((((((.(.((((((((+)))))))).).))))))))
[2]
  Tm: 52.8 °C

## CGACGTGCGCCATGTGCTG+CAGCACATGTCGCACGTCG (((((((((.(((((((((+))))))))).)))))))))
[2]
  Tm: 59.7 °C

## CGACGTGCACCATGTGCTG+CAGCACATGAAGCACGTCG ((((((((..(((((((((+)))))))))..))))))))
[2]
  Tm: 51 °C

## CGACGTGCCCTATGTGCTG+CAGCACATAATGCACGTCG ((((((((..(((((((((+)))))))))..))))))))
[2]
  Tm: 48.8 °C

## CGACGTGCATCATGTGCTG+CAGCACATGTAGCACGTCG ((((((((..(((((((((+)))))))))..))))))))
[2]
  Tm: 55.3 °C

## CGACGTGCCTTATGTGCTG+CAGCACATTTCGCACGTCG ((((((((...((((((((+))))))))...))))))))
[2]
  Tm: 47.1 °C

## CGACGTGCATAATGTGCTG+CAGCACATGATGCACGTCG ((((((((((.((((((((+)))))))).))))))))))
[2]
  Tm: 56.8 °C
